Measured values as given in article PMC7608914, “Bridging of nucleosome-proximal DNA double-strand breaks by PARP2 enhances its interaction with HPF1”.

What was measured:
Settings in all cases: protein: recombinant; (HisTrap purified); label: 6-FAM on 5' end of bottom strand; blunt
[1] = target: T1, PARP2-WT (Homo sapiens, UniProt Q9UGN5-2 1-570); assay: fluorescence polarization; 60 mM KCl, 8 mM MgCl2; FP/FRET: 50 mM Tris-HCl pH 8, 50 mM NaCl, 1 mM MgCl2, 0.1 mM EDTA, 0.1 mM TCEP, 0.01% NP-40, temperature not stated; EMSA: 20 mM Tris pH 7.5, 1 mM EDTA, 1 mM DTT, 4 C
[2] = target: T2, PARP2-QFRD (Homo sapiens, UniProt Q9UGN5-2 1-570, Q112R;F113D); assay: as above
[3] = target: T2, PARP2-QFRD; assay: fluorescence polarization; 50 mM NaCl, 1 mM MgCl2; Hill 0.9; FP/FRET: 50 mM Tris-HCl pH 8, 50 mM NaCl, 1 mM MgCl2, 0.1 mM EDTA, 0.1 mM TCEP, 0.01% NP-40, temperature not stated; EMSA: 20 mM Tris pH 7.5, 1 mM EDTA, 1 mM DTT, 4 C
[4] = target: T1, PARP2-WT; assay: fluorescence polarization; 50 mM NaCl, 1 mM MgCl2; Hill 1.2; FP/FRET: 50 mM Tris-HCl pH 8, 50 mM NaCl, 1 mM MgCl2, 0.1 mM EDTA, 0.1 mM TCEP, 0.01% NP-40, temperature not stated; EMSA: 20 mM Tris pH 7.5, 1 mM EDTA, 1 mM DTT, 4 C

B1: p18mer_fluorescein (dsDNA)
DNA 1: GGGTTGCGGCCGCTTGGG
DNA 2: CCCAAGCGGCCGCAACCC
modifications: 5'-phosphate on top strand
Work on B1 yielded a Kd [1] of about 240 nM, a Kd [2] of about 240 nM and a Kd [3] of 17.1 ± 1.8 nM. For the same binder, the Kd [4] was 11.1 ± 0.4 nM.
